{"source": "paper PMC8184782", "about": "(Nature Communications, 2021)", "target": "the molecule itself", "test": "non-reducing SDS-PAGE; MDFs treated with TSZ, lysed in DISC lysis buffer; loading dye without beta-mercaptoethanol, immunoblot for MLKL; intermolecular disulfide bonds stabilise the trimer"}
{"protein": "mixed lineage kinase domain-like (MLKL) pseudokinase, mouse, wild type, endogenous (natural protein, mouse (endogenous in MDFs), UniProt Q9D2Y4-2 1-464, looked up, after TSZ: phosphorylated at S345; K63-linked ubiquitin chains, Ub acceptor lysines K51, K77, K172 and K219, MLKL, mouse, endogenous in MDFs; Oligomers are seen only in cells treated with TNF/SM-164/z-VAD-FMK (TSZ); also called mMLKL; MLKL^WT; source: endogenous, mouse dermal fibroblasts (MDFs), in lysate or digitonin membrane fraction, after TSZ treatment) MDKLGQIIKLGQLIYEQCEKMKYCRKQCQRLGNRVHGLLQPLQRLQAQGKKNLPDDITAALGRFDEVLKEANQQIEKFSKKSHIWKFVSVGNDKILFHEVNEKLRDVWEELLLLLQVYHWNTVSDVSQPASWQQEDRQDAEEDGNENMKVILMQLQISVEEINKTLKQCSLKPTQEIPQDLQIKEIPKEHLGPPWTKLKTSKMSTIYRGEYHRSPVTIKVFNNPQAESVGIVRFTFNDEIKTMKKFDSPNILRIFGICIDQTVKPPEFSIVMEYCELGTLRELLDREKDLTMSVRSLLVLRAARGLYRLHHSETLHRNISSSSFLVAGGYQVKLAGFELSKTQNSISRTAKSTKAERSSSTIYVSPERLKNPFCLYDIKAEIYSFGIVLWEIATGKIPFEGCDSKKIRELVAEDKKQEPVGQDCPELLREIINECRAHEPSQRPSVDGILERLSAVEESTDKKV", "values": [{"measurement": "stoichiometry N", "result": 3}]}
